Measured values from US20010029022A1.

Target: CDK2 kinase complex (cyclin not given) (UniProt P24941)
Experiment: cell-based or functional assay

B1: GST-HPV6b E7 (protein)
chain: MHGRHVTLKDIVLDLQPPDPVGLHCYEQLVDSSEDEVDEVDGQDSQPLKQHFQIVTCCCGCDSNVRLVVQCTETDIREVQQLLLGTLNIVCPICAPKT
CDK2 histone kinase activity, fold activation: 15.8 fold
